From EP4541814A1 come the findings set out here.

The target in the test is AAV9 viral particles (adeno-associated virus 9). As to the kind of experiment: SPR (Biacore 8K+), biotinylated ligand on SA chip (4128 RU), AAV9 2E12 vp/ml. (SPR reads the build-up and loss of mass on a sensor chip optically.)

“CaptureSelect Biotin Anti-AAV9 Conjugate (ThermoFisher Scientific)” returned an AAV9 capacity, 2E12 vp/ml (RU) of 8860 RU.
